Laboratory results: patent publication US20070009988A1

Tests used:
[1] = molecular target: gliadin 33mer … (wheat); assay: cell-based or functional assay
[2] = molecular target: Ala-proNPY
[3] = molecular target: T1, gliadin 14mer PQPQLPYPQPQLPY
T1 chain: PQPQLPYPQPQLPY

[4] = molecular target: Gly-Ser-proNPY
[5] = molecular target: T2, gliadin 33mer LQLQPFPQPQLPYPQPQLPYPQPQLPYPQPQPF
T2 chain: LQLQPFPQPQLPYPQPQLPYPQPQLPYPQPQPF

## Pronase
[1]
  digestion of the peptide over 20 h, E/S=1/25: < 40%

B1: recombinant ruLAP2 (aminopeptidase II of Trichophyton rubrum) produced in P. pastoris (protein)
chain: RLVGQEPFGWPFKPMVTQDDLQNKIKLKDIMAGVEKLQSFSDAHPEKNRVFGGNGHKDTVEWIYNEIKATGYYDVKKQEQVHLWSHAEAALNANGKDLKASAMSYSPPASKIMAELVVAKNNGCNATDYPANTQGKIVLVERGVCSFGEKSAQAGDAKAAGAIVYNNVPGSLAGTLGGLDKRHVPTAGLSQEDGKNLATLVASGKIDVTMNVISLFENRTTWNVIAETKGGDHNNVIMLGAHSDSVDAGPGINDNGSGSIGIMTVAKALTNFKLNNAVRFAWWTAEEFGLLGSTFYVNSLDDRELHKVKLYLNFDMIGSPNFANQIYDGDGSAYNMTGPAGSAEIEYLFEKFFDDQGIPHQPTAFTGRSDYSAFIKRNVPAGGLFTGAEVVKTPEQVKLFGGEAGVAYDKNYHRKGDTVANINKGAIFLNTRAIAYAIAEYARSLKGFPTRPKTGKRDVNPQYSKMPGGGCGHHTVFM
[2]
  mass loss after overnight digestion (ESI-MS): the N-terminal alanine was almost totally removed (molecular mass loss of 71 amu) from proNPY
[3]
  digestion of the peptide, 37 C, 4 h, RP-HPLC and ESI-MS: the 14mer is not digested with ruLAP2 within 4 h. There is no change in the HPLC profile when compared with the control. In fact, digestion results only in the cleavage of the N-terminal Proline.
[4]
  mass loss after overnight digestion (ESI-MS), E/S 1:20 and 1:100: incubation with ruLAP2 results in the cleavage of the two N-terminal residues Gly-Ser with a theoretical loss of 144.1 amu (found 144.2)

B2: microsomal leucine aminopeptidase from porcine kidney (Sigma) (protein)
chain: YAQEKNKNAEHVPQAPTSPTITTTAAITLDQSKPWNRYRLPTTLLPDSYNVTLRPYLTPNADGLYIFKGKSIVRLLCQEPTDVIIIHSKKLNYTTQGHMVVLRGVGDSQVPEIDRTELVELTEYLVVHLKGSLQPGHMYEMESEFQGELADDLAGFYRSEYMEGNVKKVLATTQMQSTDARKSFPCFDEPAMKATFNITLIHPNNLTALSNMPPKGSSTPLAEDPNWSVTEFETTPVMSTYLLAYIVSEFQSVNETAQNGVLIRIWARPNAIAEGHGMYALNVTGPILNFFANHYNTSYPLPKSDQIALPDFNAGAMENWGLVTYRENALLFDPQSSSISNKERVVTVIAHELAHQWFGNLVTLAWWNDLWLNEGFASYVEYLGADHAEPTWNLKDLIVPGDVYRVMAVDALASSHPLTTPAEEVNTPAQISEMFDSISYSKGASVIRMLSNFLTEDLFKEGLASYLHAFAYQNTTYLDLWEHLQKAVDAQTSIRLPDTVRAIMDRWTLQMGFPVITVDTKTGNISQKHFLLDSESNVTRSSAFDYLWIVPISSIKNGVMQDHYWLRDVSQAQNDLFKTASDDWVLLNVNVTGYFQVNYDEDNWRMIQHQLQTNLSVIPVINRAQVIYDSFNLATAHMVPVTLALDNTLFLNGEKEYMPWQAALSSLSYFSLMFDRSEVYGPMKKYLRKQVEPLFQHFETLTKNWTERPENLMDQYSEINAISTACSNGLPQCENLAKTLFDQWMSDPENNPIHPNLRSTIYCNAIAQGGQDQWDFAWGQLQQAQLVNEADKLRSALACSNEVWLLNRYLGYTLNPDLIRKQDATSTINSIASNVIGQPLAWDFVQSNWKKLFQDYGGGSFSFSNLIQGVTRRFSSEFELQQLEQFKKNNMDVGFGSGTRALEQALEKTKANIKWVKENKEVVLNWFIEHS
[5]
  digestion of the peptide, RP-HPLC and ESI-MS: incubation with microsomal porcine kidney aminopeptidase results only in a partial deletion of N-terminal Leu and C-terminal Phe (due to a carboxypeptidasic contaminant)

B3: cytosolic leucine aminopeptidase from porcine kidney (Sigma) (protein)
chain: TKGLVLGIYSKEKEDDAPQFTSAGENFDKLVSGKLREILNISGPPLKAGKTRTFYGLHEDFSSVVVVGLGKKGAGVDDQENWHEGKENIRAAVAAGCRQIQDLEIPSVEVDPCGDAQAAAEGAVLGLYEYDELKQKKKVVVSAKLHGSGDQEAWQRGVLFASGQNLARHLMETPANEMTPTRFAEVIEKNLKSASSKTDVHIRPKSWIEEQEMGSFLSVAKGSEEPPVFLEIHYKGSPDASDPPLVFVGKGITFDSGGISIKASANMDLMRADMGGAATICSTIVSAAKLDLPINLVGLAPLCENMPSGKANKPGDVVRAKNGKTIQVDNTDAEGRLILADALCYAHTFNPKVIINAATLTGAMDIALGSGATGVFTNSSWLWNKLFEASIETGDRVWRMPLFEHYTKQIVDCQLADVNNIGKYRSAGACTAAAFLKEFVTHPKWAHLDIAGVMTNKDEVPYLRKGMAGRPTRTLIEFLLRFSQDSA
[5]
  digestion of the peptide, RP-HPLC: Cytosolic porcine kidney aminopeptidase is totally inactive towards the 33mer
